The record followed here is patent publication US20130330358.

Data set [1] deals with T1, vIRF4^202-216 peptide (vif1).
T1 sequence: SVWIPVNEGASTSGM
The experiment in a line: competitive ITC: vIRF4^202-216 titrated into TRAF pre-titrated with p53^350-364 (competitor).

Data set [2] shares this test system. The experiment in a line: competitive ITC: vIRF4^202-216 titrated into TRAF pre-titrated with p53^355-369 (competitor).
Data set [3] shares this test system. Description: competitive ITC: vIRF4^202-216 titrated into TRAF pre-titrated with MDM2^137-152 (competitor).

Chain of HAUSP TRAF domain (HAUSP^62-205) (Q93009 62-205): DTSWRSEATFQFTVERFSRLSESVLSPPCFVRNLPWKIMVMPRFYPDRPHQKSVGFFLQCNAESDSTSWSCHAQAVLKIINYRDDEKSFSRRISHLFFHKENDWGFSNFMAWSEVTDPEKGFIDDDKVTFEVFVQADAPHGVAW

For the substance HAUSP TRAF domain (HAUSP^62-205), the results for the Kobs (observed association constant) in data set [1], in data set [2] and in data set [3] were 4.42e+07 M⁻¹, 3.58e+07 M⁻¹ and 1.09e+07 M⁻¹, respectively.
